Source: PMC3164632

Target: West Nile virus envelope (E) protein (West Nile virus)

Aedes aegypti pupal cuticle (PC) protein (AAEL011045) (natural protein)
survival of mice injected i.p. with WNV pre-incubated with PC protein for an hour at 37°C (against WNV alone, all of which died within 14 days p.i.): 60%
